The record followed here is patent US20240043504A1 (published 2024).

The assay addresses SARS-COV-2 RBD-mFc (SARS-CoV-2). Description: Luminex beads.

Where a chain is given by its changes, count along the chain named.

B1: mAb10984 (antibody, V domains shown)
VH: EVQLVESGGGLVQPGGSLRLSCAASGLTVNRNYMSWVRQAPGKGLEWVSLIYSGGSTYYADSVKGRFTISRDNSKNTLYLQMNSLRLEDTAVYYCARGELGIPYGMDVWGQGTTVTVSS
VL: QSVLTQPPSVSAAPGQKVTISCSGSSSNIGNNYVSWYQQLPGTAPKLLIYDNNKRPSGIPDRFSGSKSGTSATLGITGLQTGDEADYYCGTWDSSLSAGVFGGGTKLTVLG
B1: the binding result was “binds”.

B2: mAb11002 (antibody, V domains shown)
VH: EVQLVESGGGLVQPGGSLRLSCAASGFTVSSNYMSWVRQAPGKGLEWVSVIYSGGSTFYADSVKGRFTISRHNSKNTLYLQMNSLRAEDTAVYYCAREGYGMDVWGQGTTVTVSS
VL: not shown
For B2, the binding result was “binds”.

B3: mAb10971 (antibody, V domains shown)
VH: EVQLVESGGGLIQPGGSLRLSCAASGVTVSSNYMSWVRQAPGKGLEWVSVIYSGGSTFYSDSVKGRFSISRDNSKNTLYLQMNSLRAEDTAVYYCARDLYYYGMDVWGQGTTVTVSS
VL: DIQLTQSPSFLSASVGDRVTITCRASQGISTYLAWYQQKPGKAPKLLIYAASTLQSGVPSRFSGSGSGTEFTLTISSLQPEDFATYYCQQLDSYPGLTFGGGTKVEIKR
For the molecule B3, the binding result is given as “binds”.

B4: mAb10957 (antibody, V domains shown)
VH: B3 VH with I12V, S60A, S68T, Y79F, A87I, Y100G, Y101P
VL: B3 VL with T31S, E70Q, T72I, D92N, L97F, G101P, E106D
Turning to B4, the binding result is on record as “binds”.

B5: mAb10939 (antibody, V domains shown)
VH: EVQLVESGGGLVQPGGSLRLSCAASGLTVSSNYMNWVRQVPGKGLEWVSVIYSGGSKFYVDSVKGRFTISRHNSKNTLYLQMNSLRPEDTAVYYCTRDAQYYGMDVWGQGTTVTVSS
VL: DIQMTQSPSSLSASVGDRVTITCRASQSISTYLHWYQQKPGEAPKLLIYAASSLQSGVPSRFSGSGSGTDFTLTISSLQPEDFATYYCQQSYSTPPEIFGQGTKLEIKR
As for B5, the binding result is on record as “binds”.

B6: mAb10956 (antibody, V domains shown)
VH: B3 VH with I12V, V27L, S60A, S68T, Y100I, Y101K
VL: not shown
With B6, the binding result was “binds”.

B7: mAb11004 (antibody, V domains shown)
VH: QVQLVESGGGVVQPGRSLRLSCVASGFTFSIYGMDWVRQAPGKGLEWVAVISYDGSNKYYADSVKGRFTISRDNSKNTLYLQMNSLRPEDTAVYYCAKDREAAADAFDIWGQGTMVTVSS
VL: DIQMTQSPSSVSASVGDRVTITCRASQGISSWLAWYQQKPGKAPKLLIYAASSLHSGVPSRFSGSGSGTDFTLTISSLQPEDFATYYCQQANSFRLTFGGGTKVEIK
With B7, the binding result was “binds”.

B8: mAb10923 (antibody, V domains shown)
VH: QVQLVQSGAEVKKPGASVKVSCKASGYTFINYYIHWVRQAPGQGLEWMGWINPNSGGTNYAQKFQGRVTMTRDTSISTAYMELSRLRSDDTAVYYCAIITIFGVVTWFDPWGQGTLVTVSS
VL: not shown
Regarding B8, the binding result is “binds”.

B9: mAb10938 (antibody, V domains shown)
VH: EVQLVESGGGLVQPGGSLRLSCAVSGFTVSSNYMSWVRQAPGKGLEWVSLIYSGGSTFYADSVKGRFTISRHNSKNTLYLQMNSLRAEDTAVYYCAREGGYSYDYNYWGQGTLVTVSS
VL: DIQMTQSPSSLSASVGDRVTITCQASQDIRNYLNWYQQKPGKAPKLLIYDASNLETGVPSRFSGIGSGTDFTFTISSLQPEDIATYYCQQYDNLPITFGQGTRLEIKR
For B9, the binding result is listed as “binds”.

B10: mAb10955 (antibody, V domains shown)
VH: EVQLVESGGGLVQPGGSLRVSCAASGFTVSRNYMSWVRQAPGKGLEWVSVIYSGGSTFYADSVKGRFTISRDNSKNTLYLQMNSLRAEDTAIYYCARYIPRFDPWGQGTLVTVSS
VL: B9 VL with R30S, Y36F, K42R, I65S
With B10, the binding result was “binds”.

B11: mAb10967 (antibody, V domains shown)
VH: EVQLVESGGGLVQPGGSLRLSCAASGFTVSSNYMSWVRQAPGKGLEWVSVIYPGGSTFYADSVKGRFTISRDNSKNTLYLQMNSLRAEDTAVYYCARDQRDFAWGQGTLVTVSS
VL: B9 VL with R30S, I65S, S77G, I96P
For the molecule B11, the binding result is listed as “binds”.

B12: mAb10954 (antibody, V domains shown)
VH: EVQLVESGGGLVQPGGSLRLSCAASGITVSSNYMSWVRQAPGKGLEWVSLIYSGGSTYYADSVKGRFTISRDNSKNTLYLQMNSLRVEDTAVYYCARDHGMAAAGYNYWGQGTLVTVSS
VL: B9 VL with R30N, N31K, I65S, S76N, I83F, Y87F, I96P, T97A, R103K, L104V
For the molecule B12, the binding result is “binds”.

B13: mAb11006 (antibody, V domains shown)
VH: EVQLVESGGGLVQPGGSLRLSCAASGFIVSRNYMSWVRQAPGKGLEWVSVIYSGGSTFYADSVKGRFTISRHNSKNTLYLQMNSLKAEDTAVYYCARELRGYFDYWGQGTLVTVSS
VL: DIQLTQSPSFLSASVGDRVTITCWASQGISSYLAWYQQKPGKAPKLLIYAASTLQSGVPSRFSGSGSGTEFTLTISSLQPEDFATYYCQLLNSYPYTFGQGTKLEIK
As for B13, the binding result is “binds”.

B14: mAb11008 (antibody, V domains shown)
VH: EVQLVESGGGLVQPGGSLRLSCAASGFTVSSNYMTWVRQAPGKGLEWVSVIYSGGSTFYADSVKGRFTISRHNSENTLYLQMNSLRAEDTAVYYCARDLAAAGTDYWGQGALVTVSS
VL: B13 VL with E81D, L90H, P95L
Take B14: the binding result is “binds”.

B15: mAb10965 (antibody, V domains shown)
VH: EVQLVESGGGLIQPGGSLRLSCAASVFTVSYNYMSWVRQAPGKGLEWVSVIYSGGSTYYADSVKGRFTISRDNSKNTLYLQMNSLRAEDTAVYYCARALPGWGGSFEYFDYWGQGTLVTVSS
VL: not shown
For the molecule B15, the binding result is listed as “binds”.

B16: mAb10964 (antibody, V domains shown)
VH: QVQLQESGPGLVKPSETLSLTCTVSGGSINNYYWIWIRQPPGKGLEWIGYIYHSGSTNYNPSLKSRVTISVDTSKNQFSLKVSSVTAADTAVYYCANMVRGVYEDDYWGQGTLVTVSS
VL: DIQMTQSPSSLSASVGDRVTITCRASQSISNYLNWYQQKPGKAPKLLIFAASSLRSGVPSRFSGSGSGTDFTLTISSLHPEDFATYYCQQNYNTPLTFGPGTKVDIKR
Take B16: the binding result is recorded as “binds”.

B17: mAb10969 (antibody, V domains shown)
VH: QVQLVESGGGVVQPGRSLRLSCAASGFTFSSYAMHWVRQAPGKGLEWVAVISYDGSNKYYADSVKGRFTISRDNSKNTLYLQMNSLRAEDTAVYYCARDGRTITMVRGVIDDAFDIWGQGTMVTVSS
VL: not shown
For the molecule B17, the binding result is “binds”.

B18: mAb10982 (antibody, V domains shown)
VH: EVQLVESGGGLVQPGGSLRLSCAASGLTVSSNYMSWVRQAPGKGLEWVSVIYSGGTTYYADSVKGRFTISRHNSKNTLSLQMNSLRAEDTAVYYCARGEGANYYGMDVWGQGTTVTVSS
VL: QSVLTQPPSVSGAPGQRVTISCTGSSSNIGTGYDVHWYQQLPGTAPKLLIYGNSNRPSGVPDRFSGSKSGTSASLAITGLQAEDEADYYCQSYDSSLSGYVVFGGGTKLTVLG
For B18, the binding result was “binds”.

B19: mAb10985 (antibody, V domains shown)
VH: EVQLVESGGGLVQPGRSLRLSCAASGFTFDDYAMHWVRQAPGKGLEWVSGISWNRGSIGYADSVKGRFTISRDNAKNSLYLQMSSLRAEDTALYYCAKDGERWDSVVVPSARNGMDVWGQGTTVTVSS
VL: B18 VL with T31A, Y100S, V101Y, G105T, L109V
Take B19: the binding result was “binds”.

B20: mAb10986 (antibody, V domains shown)
VH: EVQLVESGGGLVQPGGSLRLSCAASEFTVSSNYMSWVRQAPGKGLEWVSVIYSGGSTFYADSVKGRFTISRDNSKNTLYLQMNSLRAEDTAVYYCARALPYGDLHFDYWGQGTLVTVSS
VL: B18 VL with S54T, G99D, Y100S, V101Y, G105T, L109V
For B20, the binding result is reported as “binds”.

B21: mAb11010 (antibody, V domains shown)
VH: QVQLVESGGGVVQPGRSLRLSCAASGFTFSSYGMHWVRQAPGKGLEWVAVISYDGSYKYYADSVKGRFTISRDNSKNTLYLQMNSLRAEDTAVYYCAIDGGTVTTIFDYWGQGTLVTVSS
VL: not shown
Consider B21, for which the binding result was “binds”.

B22: mAb10930 (antibody, V domains shown)
VH: EVQLVESGGGLVQPGRSLRLSCAASGFTFDDYAMYWVRQAPGKGLEWVSGISWNSGSIGYADSVKGRFTISRDNAKNSLYLQMNSLRAADTALYYCAKDKDWNSRGYYYYGMDVWGQGTTVTVSS
VL: not shown
In the case of B22, the binding result is reported as “binds”.

B23: mAb10989 (antibody, V domains shown)
VH: QVQLVQSGAEVKKPGASVKVSCKASGYIFTGYYMHWVRQAPGQGLEWMGWINPNSGGANYAQKFQGRVTLTRDTSITTVYMELSRLRFDDTAVYYCARGSRYDWNQNNWFDPWGQGTLVTVSS
VL: QSALTQPASVSGSPGQSITISCTGTSSDVGTYNYVSWYQQHPGKAPKLMIFDVSNRPSGVSDRFSGSKSGNTASLTISGLQAEDEADYYCSSFTTSSTVVFGGGTKLTVLG
Consider B23, for which the binding result was “binds”.

B24: mAb10998 (antibody, V domains shown)
VH: EVQLVESGGGLVHPGGSLRLSCAASGLTVSSNYMSWVRQAPGKGLEWVSVIYSGGSTYYADSVKGRFTISRHNSKNTLFLQMNSLRAEDTAVYYCARDRPITGTTLDVWGQGTTVTVSS
VL: DIQMTQSPSSLFASVGDRVTITCRASQSISSYLNWYQQKPGKAPKLLIYAASSLQSGVPSRFSGSGSGTDFTLTISSLQPEDFAFYYCQQTYSTPPITFGQGTRLEIK
For the molecule B24, the binding result is given as “binds”.

B25: mAb10966 (antibody, V domains shown)
VH: EVQLVESGGGLVQPGGSLRLSCAASGLTVSSNYMSWVRQAPGKGLEWVSVIYSGGSTFYADSVKGRFTISRDNSKNTLYLQMNSLRPEDTAVYYCAREGRIAATGYGMDVWGQGTTVTVSS
VL: not shown
With B25, the binding result is listed as “binds”.
